Tm data for 30 substances are collected here from the array DNA melting data of Ke et al..

The first data set can be described thus: melting temperature; melt of duplexes. Particulars: sodium 0.0675 M; strand 1 µM.
Broadly, the Tm is the temperature at which the thermal transition is half complete. As for “CGACGTGCTCCATGTGCTG+CAGCACATATCGCACGTCG ((((((((...((((((((+))))))))...))))))))”, the Tm is 46.4 °C.
Turning to “CGACGTGCCTGATGTGCTG+CAGCACATCACGCACGTCG ((((((((.((((((((((+)))))))))).))))))))”, the Tm is 55.5 °C.
For the substance “CGACGTGCAAGATGTGCTG+CAGCACATAACGCACGTCG ((((((((...((((((((+))))))))...))))))))”, the melting temperature (Tm) was 48.6 °C.
On to “CGACGTGCGCCATGTGCTG+CAGCACATAGTGCACGTCG ((((((((.(.((((((((+)))))))).).))))))))”, for which the Tm was determined as 49 °C.
The same measure, in the same setting: the figure for “CGACGTGCCCCATGTGCTG+CAGCACATATCGCACGTCG ((((((((...((((((((+))))))))...))))))))” is 45.5 °C; for “CGACGTGCGTTATGTGCTG+CAGCACATACTGCACGTCG ((((((((..(((((((((+)))))))))..))))))))” it is 51.6 °C.
Regarding “CGACGTGCTTAATGTGCTG+CAGCACATAGCGCACGTCG ((((((((...((((((((+))))))))...))))))))”, the Tm came to 47.3 °C.
Same read-out and setting: the figure for “CGACGTGCAGCATGTGCTG+CAGCACATAGTGCACGTCG (((((((((..((((((((+))))))))..)))))))))” is 44.4 °C; for “CGACGTGCGAAATGTGCTG+CAGCACATGTCGCACGTCG ((((((((((.((((((((+)))))))).))))))))))” it is 58.9 °C; for “CGACGTGCGGGATGTGCTG+CAGCACATATCGCACGTCG (((((((((..((((((((+))))))))..)))))))))” it is 56.7 °C.
The same measure, in the same setting: then “CGACGTGCTCAATGTGCTG+CAGCACATGCTGCACGTCG ((((((((...((((((((+))))))))...))))))))”, with 47.9 °C; and “CGACGTGCATAATGTGCTG+CAGCACATACTGCACGTCG (((((((((..((((((((+))))))))..)))))))))”, with 50.5 °C; and “CGACGTGCACGATGTGCTG+CAGCACATGGCGCACGTCG ((((((((.(.((((((((+)))))))).).))))))))”, with 50.2 °C.
In the case of “CGACGTGCTCTATGTGCTG+CAGCACATGTGGCACGTCG ((((((((...((((((((+))))))))...))))))))”, the Tm came out at 50.4 °C.
Same read-out and setting: then “CGACGTGCCGAATGTGCTG+CAGCACATTTCGCACGTCG ((((((((..(((((((((+)))))))))..))))))))”, with 52.4 °C.
In the case of “CGACGTGCTTAATGTGCTG+CAGCACATCGGGCACGTCG ((((((((...((((((((+))))))))...))))))))”, the Tm was 49.1 °C.
On the same count and under the same terms, then “CGACGTGCGGCATGTGCTG+CAGCACATATGGCACGTCG ((((((((...((((((((+))))))))...))))))))”, with 49.5 °C; and “CGACGTGCGGTATGTGCTG+CAGCACATGAAGCACGTCG ((((((((...((((((((+))))))))...))))))))”, with 55.3 °C; and “CGACGTGCGATATGTGCTG+CAGCACATGGAGCACGTCG ((((((((...((((((((+))))))))...))))))))”, with 57.4 °C.
On the same count and under the same terms, the figure for “CGACGTGCAATATGTGCTG+CAGCACATAAGGCACGTCG ((((((((..(((((((((+)))))))))..))))))))” is 51.9 °C.
Same read-out and setting: then “CGACGTGCGGCATGTGCTG+CAGCACATACTGCACGTCG ((((((((.(.((((((((+)))))))).).))))))))”, with 54.2 °C; and “CGACGTGCACGATGTGCTG+CAGCACATATGGCACGTCG ((((((((...((((((((+))))))))...))))))))”, with 46.9 °C; and “CGACGTGCTCTATGTGCTG+CAGCACATTTCGCACGTCG ((((((((...((((((((+))))))))...))))))))”, with 47.3 °C.
On to “CGACGTGCCTCATGTGCTG+CAGCACATGACGCACGTCG ((((((((.((((((((((+)))))))))).))))))))”, for which the Tm amounted to 52.7 °C.
For the substance “CGACGTGCGCTATGTGCTG+CAGCACATAGTGCACGTCG ((((((((.((((((((((+)))))))))).))))))))”, the Tm amounted to 58.2 °C.
Still for that read-out and setting: the figure for “CGACGTGCGTAATGTGCTG+CAGCACATTGTGCACGTCG ((((((((..(((((((((+)))))))))..))))))))” is 52 °C; for “CGACGTGCTCTATGTGCTG+CAGCACATTGTGCACGTCG ((((((((.(.((((((((+)))))))).).))))))))” it is 48.3 °C; for “CGACGTGCCAAATGTGCTG+CAGCACATTTGGCACGTCG (((((((((((((((((((+)))))))))))))))))))” it is 64.5 °C.

The next data set is described as follows: melting temperature; UV melt of duplexes. The note with it: sodium 0.07 M; strand 2 µM.
On to “CGCGCCACGTGTGATCTACAGCCGTTCGGC+GCCGAACGGCTGTAGATCACACGTGGCGCG ((((((((((((((((((((((((((((((+))))))))))))))))))))))))))))))”, for which the Tm came to 72.7 °C.

Still in this data set, the particulars now being: sodium 0.12 M; strand 2 µM.
As for “CGCGCCACGTGTGATCTACAGCCGTTCGGC+GCCGAACGGCTGTAGATCACACGTGGCGCG ((((((((((((((((((((((((((((((+))))))))))))))))))))))))))))))”, the Tm is 76.3 °C.

Staying with this data set, now noted: sodium 0.12 M; strand 6 µM.
In the case of “AAAAAAAAGAATTCTTTTTTTT+AAAAAAAAGAATTCTTTTTTTT ((((((((((((((((((((((+))))))))))))))))))))))”, the midpoint of thermal melting (Tm) was 49.9 °C.

The same data set, now with this note: sodium 0.22 M; strand 2 µM.
As to “CGCGCCACGTGTGATCTACAGCCGTTCGGC+GCCGAACGGCTGTAGATCACACGTGGCGCG ((((((((((((((((((((((((((((((+))))))))))))))))))))))))))))))”, the Tm worked out at 79.5 °C.

Still in this data set, the particulars now being: sodium 0.62 M; strand 2 µM.
In the case of “CGCGCCACGTGTGATCTACAGCCGTTCGGC+GCCGAACGGCTGTAGATCACACGTGGCGCG ((((((((((((((((((((((((((((((+))))))))))))))))))))))))))))))”, the Tm worked out at 83.4 °C.

The data set is the same for the next values; noted with them: sodium 1.02 M; strand 2 µM.
Consider “CGCGCCACGTGTGATCTACAGCCGTTCGGC+GCCGAACGGCTGTAGATCACACGTGGCGCG ((((((((((((((((((((((((((((((+))))))))))))))))))))))))))))))”, for which the Tm was found to be 84.5 °C.
